One block for each binder: values may come before it.
Assays:
[1] = target: human Hyper-IL-6 (HIL-6) (human); experiment: cell-based or functional assay
[2] = target: T1, human Hyper-IL-6 (HIL-6) (human); experiment: SPR; Fc fusion captured on a Protein A sensor chip, cytokine injected (HIL-6, HIL-12 50 to 0.1 nM, 30 μl/min, 120 s association, 300 s dissociation); 25 °C, PBS pH 7.4, 0.05% surfactant P20; 1:1 binding model; Biacore X100; settings: both partners purified
T1 construct: soluble IL-6 receptor (sIL-6R), human; flexible peptide linker; Interleukin 6 (IL-6), human; also called hHIL-6; source: recombinant, produced and purified as described (27)

[3] = target: Hyper IL-12 (HIL-12) (human); experiment: cell-based or functional assay
[4] = target: T2, Hyper IL-12 (HIL-12) (human); experiment: SPR; Fc fusion captured on a Protein A sensor chip, cytokine injected (HIL-6, HIL-12 50 to 0.1 nM, 30 μl/min, 120 s association, 300 s dissociation); 25 °C, PBS pH 7.4, 0.05% surfactant P20; 1:1 binding model; Biacore X100; settings: both partners purified
T2 construct: IL-12/IL-23 subunit p40, human; flexible linker; IL-12 subunit p35, human; also called hHIL-12; FLAG-tagged HIL-12

- IC50 of inhibition of proliferation of Ba/F3-gp130 cells stimulated with 150 ng/ml IL-6 and 300 ng/ml sIL-6R (IL-6 trans-signaling via gp130; separate IL-6 and sIL-6R, not the fused HIL-6) [1]: 0.51 nM
- Kd [2]: 0.0488 nM
- koff [2]: 8.55e-05 s⁻¹
- kon [2]: 1.75e+06 M⁻¹ s⁻¹
B1: cs130-TNF^VHHFc (Fc fusion)
chain: ELLDPCGYISPESPVVQLHSNFTAVCVLKEKCMDYFHVNANYIVWKTNHFTIPKEQYTIINRTASSVTFTDIASLNIQLTCNILTFGQLEQNVYGITIISGLPPEKPKNLSCIVNEGKKMRCEWDGGRETHLETNFTLKSEWATHKFADCKAKRDTPTSCTVDYSTVYFVNIEVWVEAENALGKVTSDHINFDPVYKVKPNPPHNLSVINSEELSSILKLTWTNPSIKSVIILKYNIQYRTKDASTWSQIPPEDTASTRSSFTVQDLKPFTEYVFRIRCMKEDGKGYWSDWSEEASGITYEDDVQFVESGGGSVHAGGSLRLNCATSGYIYSTYCMGWFRQAPGKEREGVAHIYTNSGRTYYADSVKGRFTISQDNAKNTVYLQMNSLKPEDTAIYYCAARPSIRCASFSATEYKDWGQGTQVTVSSGGGGSGGGGSGGGGTG

- IC50 of inhibition of proliferation of Ba/F3-gp130 cells stimulated with 150 ng/ml IL-6 and 300 ng/ml sIL-6R (IL-6 trans-signaling via gp130; separate IL-6 and sIL-6R, not the fused HIL-6) [1]: 0.56 nM
- IC50 of inhibition of proliferation of Ba/F3-hIL-12Rβ1-hIL-12Rβ2 cells induced by 10 ng/ml HIL-12, 72 h, CellTiter-Blue [3]: 7.81 nM
- Kd [2]: 0.0289 nM
- koff [2]: 7.02e-05 s⁻¹
- kon [2]: 2.43e+06 M⁻¹ s⁻¹
- Kd [4]: 0.23 nM
- koff [4]: 0.000163 s⁻¹
- kon [4]: 710000 M⁻¹ s⁻¹
B2: cs130-IL-12/23^VHHFc (Fc fusion)
chain: ELLDPCGYISPESPVVQLHSNFTAVCVLKEKCMDYFHVNANYIVWKTNHFTIPKEQYTIINRTASSVTFTDIASLNIQLTCNILTFGQLEQNVYGITIISGLPPEKPKNLSCIVNEGKKMRCEWDGGRETHLETNFTLKSEWATHKFADCKAKRDTPTSCTVDYSTVYFVNIEVWVEAENALGKVTSDHINFDPVYKVKPNPPHNLSVINSEELSSILKLTWTNPSIKSVIILKYNIQYRTKDASTWSQIPPEDTASTRSSFTVQDLKPFTEYVFRIRCMKEDGKGYWSDWSEEASGITYEDDVQFVESGGGSVHAGGSLRLNCATSGYIYSTYCMGWFRQAPGKEREGVAHIYTNSGRTYYADSVKGRFTISQDNAKNTVYLQMNSLKPEDTAIYYCAARPSIRCASFSATEYKDWGQGTQVTVSSRENLYFQMKYLLPTAAAGLLLLAAQPAMAEVQLVESGGGLVQAGGSLRLSCAASGRTFSWSAVGWFRQAPGKEREFVAAIRWSGGSPYYADSVKDRFTISRDNAKNTVYLQMNSLRPEDTAVYLCGETSLFPTSRGSHYDTWGQGTQVTVSSGSGWSHPQFEK
